Results on 2 molecules are retold here after patent US8680233B2, “Heteropeptides useful for reducing nonspecific adsorption” (Valorisation-Recherche, Limited Partnership, priority 2009, dated 2014).

Series [1] deals with recombinant soluble His-tagged CD36 (Homo sapiens, UniProt P16671). The series can be described thus: SPR screening of peptide ligands on a CD36 functionalized sensor. In kind it is binding. The settings on record: increasing ligand concentrations. Here is the method: (§1) The SPR sensors for screening small peptidic ligand binding to a recombinant soluble His-tagged CD36 functionalized surfaces were prepared as described above. Five ligands were investigated: EP80317, CP-2B(i), CP-3(iv), CP-2A(v) and DBG-178(27) with concentrations ranging from 30 μM to 100 nM except for EP80317. The latter was used for optimizing the system with solutions ranging from 1 mM to 100 nM. EP80317 (HAIC-2MeDTrp-DLys-Trp-D-Phe-Lys-NH2) is a positive control of known activity, CP-2B(i) (His-DTrp-AzaLeu-Trp-DPhe-Ala-NH2) is a negative control, and CP-3(iv) (Ala-DTrp-Ala-AzaPhe-DPhe-Lys-NH2), CP-2A(v) (His-DTrp-AzaGly-Trp-DPhe-Lys-NH2) and DBG-178(27) (His-DTrp-Ala-azaTyr-DPhe-Lys-NH2) are novel CD36 ligands (see PCT publication No. WO 08/154,738). Another negative control was accomplished by exposing the His-tagged hDHFR functionalized surface to the same concentration of CD36 peptidic ligand. Two different approaches were used to remove the His-tagged CD36-Cu complex from the SPR sensors: concentrated histidine solution or saturated EDTA solution.
Chain of recombinant soluble His-tagged CD36 (P16671 30-439 limits assumed): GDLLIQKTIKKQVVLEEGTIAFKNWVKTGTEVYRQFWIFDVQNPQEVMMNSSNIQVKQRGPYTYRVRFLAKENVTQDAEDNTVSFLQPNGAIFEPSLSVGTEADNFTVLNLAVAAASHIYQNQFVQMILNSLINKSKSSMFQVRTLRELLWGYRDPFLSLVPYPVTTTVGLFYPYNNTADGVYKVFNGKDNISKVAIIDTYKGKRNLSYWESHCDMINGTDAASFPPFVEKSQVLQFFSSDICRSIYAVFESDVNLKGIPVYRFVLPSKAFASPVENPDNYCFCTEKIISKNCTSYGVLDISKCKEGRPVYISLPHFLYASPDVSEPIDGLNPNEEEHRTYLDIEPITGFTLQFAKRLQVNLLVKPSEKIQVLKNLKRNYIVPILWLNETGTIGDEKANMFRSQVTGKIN
This is the case of the CD36-ligand system investigated herein, where the ligands are small peptides of about 800 to 1000 g/mol. Indeed, according to the aforementioned principle, the binding of the small peptides to the CD36 receptor should be close to the limit of detection, thus providing unreliable affinity measurements. […] This could be a consequence of a large conformational change of the CD36 receptor upon binding of specific ligands, thus providing the amplification sufficient for SPR signal detection.
The SPR setup was used for investigating the structure-activity relationships of various CD36 peptidic ligands. […] The measured KD's were compared to the EC50 values obtained in the activated src-kinase assay following CD36 receptor activation by the tested peptides. […] For the src-kinase cellular assay, the response sensitivity (EC50) for the tested peptides (in decreasing order) was as follows: EP80317>CP-2A(v)>CP-3(iv)>DBG-178(27)>CP-2B(i). With SPR, the binding affinity to CD36, in decreasing order, was: DBG-178(27)>CP-2A(v)>EP80317>CP-3(iv)>CP-2B(i). […] For CD36-peptidic ligands, a correlation appears between the affinity binding of the small peptides for CD36 as determined by SPR and their efficiency to produce a cellular response in the src kinase assay. Thus, SPR appears as a selective and sensitive method to screen for CD36 ligands.

Series [2] addresses T1, His-tagged hDHFR (Homo sapiens, UniProt P00374).
T1 construct: made in house
T1 sequence (P00374 1-187): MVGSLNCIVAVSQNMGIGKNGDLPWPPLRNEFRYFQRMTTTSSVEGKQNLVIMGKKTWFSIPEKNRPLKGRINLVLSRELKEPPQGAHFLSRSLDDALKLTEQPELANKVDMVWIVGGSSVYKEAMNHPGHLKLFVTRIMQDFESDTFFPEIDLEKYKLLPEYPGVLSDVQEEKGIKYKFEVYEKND
The series can be described thus: SPR blank assay on a hDHFR-His-Tag functionalized sensor. The series is classed as binding. Particulars: same peptide concentrations. Here is the method: as §1
This is the case of the CD36-ligand system investigated herein, where the ligands are small peptides of about 800 to 1000 g/mol. Indeed, according to the aforementioned principle, the binding of the small peptides to the CD36 receptor should be close to the limit of detection, thus providing unreliable affinity measurements. […]

Series [3] concerns the target T2, human dihydrofolate reductase (hDHFR) (Homo sapiens, UniProt P00374).
T2 construct: made in house
T2 sequence (P00374 1-187): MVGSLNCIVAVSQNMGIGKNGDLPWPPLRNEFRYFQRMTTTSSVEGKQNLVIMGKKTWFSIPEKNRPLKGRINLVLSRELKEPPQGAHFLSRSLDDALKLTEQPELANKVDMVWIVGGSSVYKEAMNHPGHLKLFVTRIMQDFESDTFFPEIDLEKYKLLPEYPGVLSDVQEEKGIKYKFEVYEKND
The series can be described thus: Real-time UV/Vis monitoring of the enzymatic reaction of immobilized hDHFR. The series is classed as biochemical. Here is the method: The peptidomimetic monolayer binding His-tagged biomolecules was exposed for a period of 15 min to a 50 μg/mL PBS solution of His-tagged hDHFR, then rinsed with PBS. The SPR sensor with His-tagged hDHFR was placed in a UV/Vis cuvette, similar to a method developed by Knoll et al. (Xu et al., 2005. Journal of the American Chemical Society 127(38), 13084-13085). His-tagged hDHFR was obtained as previously reported (Volpato et al., 2007 Journal of Molecular Biology 373, 599-611). A negative control, consisting of the peptidomimetic-modified SPR sensor without hDHFR was exposed to buffer and rinsed to verify that the observed change in absorbance was due to immobilized His-tagged hDHFR and not to the surface itself. The enzymatic reaction catalyzed by hDHFR was monitored by UV/Vis spectrometry. The SPR sensors were immersed in a solution of 100 μM NADPH (cofactor) and 100 μM dihydrofolate (DHF, substrate) in 10 mM Tris buffer, pH=8.0, for 1 hour. The activity of the enzyme was measured by following the time course of the absorption (ΔA(t)) at λ=340 nm due to consumption of NADPH and DHF, by subtracting the blank signal (Ablank(t)) and the initial absorbance of the solution (A(O)). The activity was confirmed for each sample of His-tagged hDHFR on the SPR sensor. 1 U of enzyme activity corresponds to conversion of 1 μmol substrate to product per min. Absorption spectra were recorded with a Cary 100 Bio UV/Vis spectrometer equipped with a liquid temperature control system running at 35° C. to be in the optimal condition for the enzymatic reaction to take place. After monitoring the activity, the SPR sensors were rinsed with buffer, 18.2 MΩ water and the His-tagged hDHFR was removed from the surface with a 0.5 M imidazole solution for 10 minutes. […]
In contrast with those results, immobilizing His-tagged hDHFR on the peptidomimetic monolayer allowed to retain the activity of the enzyme. This is observed by a consumption of the reactants (NADPH and DHF), decreasing the absorbance measured at λ=340 nm (FIG. 3). According to the absorption coefficient (Δ∈=12.8 mM^−1 cm^−1), the measured slope (5.7*10 Abs/min) corresponded to an activity of 4.4±0.8*10^−5 U. The specific activity of His-tagged hDHFR previously determined in presence of saturating reactants was 8.5 U/mg. Thus, the activity measured on the surface corresponded to 5±0.9 ng (n=4) of fully active hDHFR. […] The fraction of active enzyme on the surface cannot be determined, because the activity measured for the enzyme immobilized on the surface of the SPR is a factor of the activity of the enzyme (as for the enzyme in solution) and the time required for the products to diffuse in the light beam of the UV-Vis (not a factor for the enzyme in solution). […]

The target of series [4] is T2, human dihydrofolate reductase (hDHFR). Particulars: previously determined in presence of saturating reactants; cited from earlier work.

Numbered stars: 1 amine (or outer) side, 2 acyl side, 3 side chain; on linkers, the order of the positions; unused ones are H or OH. Square brackets hold non-standard residues; d marks the D form. Peptide text beside a SMILES is read from it. Haic = O=C1[C@@H](N[*:1])CCc2cccc3c2N1[C@H](C(=O)[*:2])C3; dTrp(2-Me) = Cc1[nH]c2ccccc2c1C[C@@H](N)C(=O)O

With `Cc1[nH]c2ccccc2c1C[C@@H](NC(=O)[C@@H]1Cc2cccc3c2N1C(=O)[C@@H](N)CC3)C(=O)N[C@H](CCCCN)C(=O)N[C@@H](Cc1c[nH]c2ccccc12)C(=O)N[C@H](Cc1ccccc1)C(=O)N[C@@H](CCCCN)C(N)=O` [EP80317, HAIC-2MeDTrp-DLys-Trp-D-Phe-Lys-NH2, reference compound] (Haic-[dTrp(2-Me)][dK]W[dF]K-NH2; N-terminus assumed), the “Change of SPR signal on CD36-His-tag-functionalized surface” value in series [1] was “large shift in the signal”. Further, in series [2], the “Change of SPR signal on hDHFR-His-Tag functionalized sensor” value is “no significant change of signal”.

B1: His-tagged hDHFR: His-tagged human dihydrofolate reductase immobilized on the SPR sensor (protein)
chain: MVGSLNCIVAVSQNMGIGKNGDLPWPPLRNEFRYFQRMTTTSSVEGKQNLVIMGKKTWFSIPEKNRPLKGRINLVLSRELKEPPQGAHFLSRSLDDALKLTEQPELANKVDMVWIVGGSSVYKEAMNHPGHLKLFVTRIMQDFESDTFFPEIDLEKYKLLPEYPGVLSDVQEEKGIKYKFEVYEKND
modifications: left off: small tags and cut ends
notes: His-tagged human dihydrofolate reductase immobilized on the SPR sensor
For the molecule B1, the “Enzyme activity after covalent immobilization” value in series [3] (covalently immobilized to 16-MHA using EDC/NHS chemistry) is “inactive”. Also, the “Average variation of the absorbance value over 60 minutes” value in series [3] (four sensors regenerated with imidazole, n=8) is −0.034±0.006. For the same molecule, in series [3] (immobilized on peptidomimetic monolayer, absorbance at 340 nm), the “Enzyme activity of immobilized enzyme” value is reported as 4.4±0.8*10^−5 U. The “Amount of fully active enzyme corresponding to the measured surface activity” value in series [3] (n=4) worked out at 5 ± 0.9 ng. Further, the Specific activity in series [4] is given as 8.5 U/mg.
